Values of other authors as cited in PMC11806408.

Biological target: BMP-10 GF growth factor (Homo sapiens) (UniProt O95393)
Sequence (O95393 317-424): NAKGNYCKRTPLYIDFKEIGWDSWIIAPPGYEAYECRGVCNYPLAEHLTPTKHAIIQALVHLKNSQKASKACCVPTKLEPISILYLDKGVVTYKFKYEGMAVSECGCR

BMP-10 PD prodomain, sequence (O95393 22-316): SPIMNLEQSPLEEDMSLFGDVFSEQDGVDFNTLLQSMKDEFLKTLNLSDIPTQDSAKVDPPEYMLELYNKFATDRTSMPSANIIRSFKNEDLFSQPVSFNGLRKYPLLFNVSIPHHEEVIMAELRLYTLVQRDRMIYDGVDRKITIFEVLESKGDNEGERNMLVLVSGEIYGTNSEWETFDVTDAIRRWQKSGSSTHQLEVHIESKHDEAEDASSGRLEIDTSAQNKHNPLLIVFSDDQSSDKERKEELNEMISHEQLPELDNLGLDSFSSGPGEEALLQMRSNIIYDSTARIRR

In the case of “BMP-10 PD prodomain (from UniProt O95393)”, the Kd is given as 7 nM.
